Assay results: US20220143204A1

Assays:
[1] = molecular target: human IGF2R on cells (human) (UniProt P11717); experiment: cell-based or functional assay
rat IGF2R on cells (rat) = experiment: cell-based or functional assay
[2] = molecular target: recombinant human extracellular domain of IGF2R (human) (UniProt P11717); experiment: titration ELISA on recombinant hIGF2R-ECD, direct read-out of the Alexa Fluor 647 conjugate (fluorescence intensity 700 nm), one-site specific binding fit (Examples 4.1, 6.1)
[3] = molecular target: recombinant human extracellular domain of IGF2R (human) (UniProt P11717); experiment: titration ELISA of the Alexa Fluor 647 conjugate on recombinant hIGF2R-ECD, one-site specific binding fit
[4] = molecular target: recombinant human extracellular domain of IGF2R (human) (UniProt P11717); experiment: competition ELISA on human IGF2R ectodomain: 250 nM unlabelled 13E8 against 10 nM labelled 13F11 (competitor: 13F11-A647)
[5] = molecular target: recombinant human extracellular domain of IGF2R (human) (UniProt P11717); experiment: binding assay on plates coated with hIGF2R-ECD, three-fold VHH dilutions, bound VHH detected with anti-VHH antibody (Example 4.1); y axis OD415
[6] = molecular target: recombinant human extracellular domain of IGF2R (human) (UniProt P11717); experiment: binding assay on hIGF2R-ECD coated plates, detection with anti-VHH antibody
[7] = molecular target: recombinant human extracellular domain of IGF2R (human) (UniProt P11717); experiment: titration ELISA on hIGF2R-ECD, direct read out at 647 nm, one-site specific binding fit

| Bmax [2] | Kd [3] [nM] | EC50 (read off the curve) [5] [nM] | Binder | other results |
| --- | --- | --- | --- | --- |
| 79.2 | 2.5 |  | 13F11-13E8 conjugated to Alexa Fluor 647 (VHH, not shown: small tags and cut ends, Alexa Fluor 647 by maleimide chemistry on the C-terminal free cysteine) EVQLVESGGRLVQPGDSLRLSCAASGRTFSDNAMGWFRQAPGKERRFVAGISWAGGSTYYSDSVKGRFTISRDNAKNTVYLQMNSLKPEDTAVYYCAAGLRAWVQRMPKDYNYWGQGTQVTVSSGGGGSGGGGSGGGGSEVQLVESGGGLVQAGGSLRLSCAASRSISPMGWYRQAPGKQRELVAIMPSSGPPIYADSVQGRFTISRDNAKNTVYLQMNSLKPEDTAVYYCNVGGGYWGQGTQVTVSS |  |
|  |  | 2 | 13G10 (VHH) VHH: EVQLVESGGGLVQAGGSLRLSCAASGLTFSSYTMAWYRQAPGKEREVVAAISSGDSIYHEDSVQGRFIISRDNAKNTVYLQMNSLKAEDTAVYYCRANGPGTYWGQGTQVTVSS |  |
| 63.4 | 3.1 |  | 13F11-13F11 conjugated to Alexa Fluor 647 (VHH, part only; not given: C-terminal cysteine and His tag, not shown: small tags and cut ends, Alexa Fluor 647 by maleimide chemistry on the C-terminal free cysteine) chain, part: EVQLVESGGRLVQPGDSLRLSCAASGRTFSDNAMGWFRQAPGKERRFVAGISWAGGSTYYSDSVKGRFTISRDNAKNTVYLQMNSLKPEDTAVYYCAAGLRAWVQRMPKDYNYWGQGTQVTVSSGGGGSGGGGSGGGGSEVQLVESGGRLVQPGDSLRLSCAASGRTFSDNAMGWFRQAPGKERRFVAGISWAGGSTYYSDSVKGRFTISRDNAKNTVYLQMNSLKPEDTAVYYCAAGLRAWVQRMPKDYNYWGQGTQVTVSS |  |

The remaining lines, values behind:

| Binder | Bmax [2] | Kd [3] [nM] | EC50 (read off the curve) [5] [nM] | other results |
| --- | --- | --- | --- | --- |
| 13E8-13F11 conjugated to IRD800CW (VHH, not shown: small tags and cut ends, IRD800CW by maleimide chemistry on the C-terminal free cysteine) EVQLVESGGGLVQAGGSLRLSCAASRSISPMGWYRQAPGKQRELVAIMPSSGPPIYADSVQGRFTISRDNAKNTVYLQMNSLKPEDTAVYYCNVGGGYWGQGTQVTVSSGGGGSGGGGSGGGGSEVQLVESGGRLVQPGDSLRLSCAASGRTFSDNAMGWFRQAPGKERRFVAGISWAGGSTYYSDSVKGRFTISRDNAKNTVYLQMNSLKPEDTAVYYCAAGLRAWVQRMPKDYNYWGQGTQVTVSS |  |  |  | endocytic rate constant, ke [1]: 1.5 min⁻¹; endocytic rate constant, ke (rat IGF2R on cells (rat)): 0.7 min⁻¹ |
| 13E8-13F11 conjugated to Alexa Fluor 647 (VHH, not shown: small tags and cut ends, Alexa Fluor 647 by maleimide chemistry on the C-terminal free cysteine) EVQLVESGGGLVQAGGSLRLSCAASRSISPMGWYRQAPGKQRELVAIMPSSGPPIYADSVQGRFTISRDNAKNTVYLQMNSLKPEDTAVYYCNVGGGYWGQGTQVTVSSGGGGSGGGGSGGGGSEVQLVESGGRLVQPGDSLRLSCAASGRTFSDNAMGWFRQAPGKERRFVAGISWAGGSTYYSDSVKGRFTISRDNAKNTVYLQMNSLKPEDTAVYYCAAGLRAWVQRMPKDYNYWGQGTQVTVSS | 94.7 | 2.5 |  |  |
| 13E8 (VHH) VHH: EVQLVESGGGLVQAGGSLRLSCAASRSISPMGWYRQAPGKQRELVAIMPSSGPPIYADSVQGRFTISRDNAKNTVYLQMNSLKPEDTAVYYCNVGGGYWGQGTQVTVSS |  |  |  | decrease of the fluorescence intensity of labelled 13F11 [4]: < 5% |
| 13C11 (VHH) VHH: EVQLVESGGGLVQAGGSLRLSCAASGLTFSSYTMAWYRQAPGKEREVVAAISSGDSIYHEGSVQGRFIISRDNAKNTVYLQMNSLKAEDTAVYYCRANGPGTYWGQGTQVTVSS |  |  | 3 |  |
| 13F11 (VHH) VHH: EVQLVESGGRLVQPGDSLRLSCAASGRTFSDNAMGWFRQAPGKERRFVAGISWAGGSTYYSDSVKGRFTISRDNAKNTVYLQMNSLKPEDTAVYYCAAGLRAWVQRMPKDYNYWGQGTQVTVSS |  |  | 0.4 | Kd [6]: 0.23 nM |
| 13F11 conjugated to Alexa Fluor 647 (VHH, not shown: small tags and cut ends, Alexa Fluor 647 by maleimide chemistry on the C-terminal free cysteine) VHH: EVQLVESGGRLVQPGDSLRLSCAASGRTFSDNAMGWFRQAPGKERRFVAGISWAGGSTYYSDSVKGRFTISRDNAKNTVYLQMNSLKPEDTAVYYCAAGLRAWVQRMPKDYNYWGQGTQVTVSS | 20.1 |  |  | Kd [7]: 1 nM |
